Biological target: 基孔肯雅病毒E2蛋白 (基孔肯雅病毒标准株S27, UniProt Q8JUX5 326-748)
Test: cell-based or functional assay

Sequence of 基孔肯雅病毒E2蛋白 (Q8JUX5 326-748 limits assumed): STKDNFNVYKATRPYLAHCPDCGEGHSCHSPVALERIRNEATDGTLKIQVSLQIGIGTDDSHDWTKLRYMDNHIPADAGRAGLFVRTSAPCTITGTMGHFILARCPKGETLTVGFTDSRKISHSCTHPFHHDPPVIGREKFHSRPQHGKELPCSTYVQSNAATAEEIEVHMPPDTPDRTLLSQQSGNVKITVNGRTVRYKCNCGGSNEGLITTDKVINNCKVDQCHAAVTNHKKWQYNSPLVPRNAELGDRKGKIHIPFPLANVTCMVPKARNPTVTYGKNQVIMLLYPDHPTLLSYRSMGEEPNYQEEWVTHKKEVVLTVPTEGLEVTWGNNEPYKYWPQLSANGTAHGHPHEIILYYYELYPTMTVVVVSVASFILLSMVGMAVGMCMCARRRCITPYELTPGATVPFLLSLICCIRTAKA

B1: 抗基孔肯雅病毒全人源单克隆抗体8D1 (antibody, human IgG1, kappa, V domains shown)
VH: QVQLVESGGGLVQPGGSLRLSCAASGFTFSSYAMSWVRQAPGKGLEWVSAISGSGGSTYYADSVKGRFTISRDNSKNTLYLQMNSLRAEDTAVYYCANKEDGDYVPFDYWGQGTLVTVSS
VL: DIVMTQSPATLSASVGDRVTITCRASQSISSYLNWYQQKPGKAPKLLIYAASSLQSGVPSRFSGSGSGTDFTLTISSLQPEDFATYYCQQSYFFGPGTKVDIKR
Q: For B1, which “IC50, Vero细胞中和实验 (结晶紫染色, 细胞活率)” value is on record?
A: 0.12 µg/mL

— patent CN110903386A (INST MILITARY MEDICINE ACADEMY MILITARY SCIENCES PLA, dated 2020)
